The test has as its target T1, rat Tie-2 (rTie-2), as used in BIAcore analysis (rat, UniProt A0ABK0L6J5 19-740).
T1 construct: It may have been rTie-2-Fc
Put plainly: BIAcore. Background: SPR reads the build-up and loss of mass on a sensor chip optically.

B1: FD1-Fc-FD1 (Fc fusion, human)
chain (part 1 of 2): FRDCADVYQAGFNKSGIYTIYINNMPEPKKVFCNMDVNGGGWTVIQHREDGSLDFQRGWKEYKMGFGNPSGEYWLGNEFIFAITSQRQYMLRIELMDWEGNRAYSQYDRFHIGNEKQNYRLYLKGHTGTAGKQSSLILHGADFSTKDADNDNCMCKCALMLTGGWWFDACGPSNLNGMFYTAGQNHGKLNGIKWHYFKGPSYSLRSTTMMIRPLDF
chain (part 2 of 2): B1 chain (part 1 of 2)
notes: domain: fibrinogen domain of Ang1; also called BA1; not shown: Fc
Take B1: the affinity, expressed as Kd, was 2 nM.

One may read the Kd as the free concentration of one partner at which half of the binding sites on the other are occupied at equilibrium, for simple one-to-one binding. High values mean lower affinity, low ones higher affinity.

The values are drawn from patent US20130280758A1 (Regeneron, published 2013).
